We go through one substance from US20220333124.

Data set [1] relates to T1, Pb2Cpf1 (Prevotella bryantii B14).
T1 sequence: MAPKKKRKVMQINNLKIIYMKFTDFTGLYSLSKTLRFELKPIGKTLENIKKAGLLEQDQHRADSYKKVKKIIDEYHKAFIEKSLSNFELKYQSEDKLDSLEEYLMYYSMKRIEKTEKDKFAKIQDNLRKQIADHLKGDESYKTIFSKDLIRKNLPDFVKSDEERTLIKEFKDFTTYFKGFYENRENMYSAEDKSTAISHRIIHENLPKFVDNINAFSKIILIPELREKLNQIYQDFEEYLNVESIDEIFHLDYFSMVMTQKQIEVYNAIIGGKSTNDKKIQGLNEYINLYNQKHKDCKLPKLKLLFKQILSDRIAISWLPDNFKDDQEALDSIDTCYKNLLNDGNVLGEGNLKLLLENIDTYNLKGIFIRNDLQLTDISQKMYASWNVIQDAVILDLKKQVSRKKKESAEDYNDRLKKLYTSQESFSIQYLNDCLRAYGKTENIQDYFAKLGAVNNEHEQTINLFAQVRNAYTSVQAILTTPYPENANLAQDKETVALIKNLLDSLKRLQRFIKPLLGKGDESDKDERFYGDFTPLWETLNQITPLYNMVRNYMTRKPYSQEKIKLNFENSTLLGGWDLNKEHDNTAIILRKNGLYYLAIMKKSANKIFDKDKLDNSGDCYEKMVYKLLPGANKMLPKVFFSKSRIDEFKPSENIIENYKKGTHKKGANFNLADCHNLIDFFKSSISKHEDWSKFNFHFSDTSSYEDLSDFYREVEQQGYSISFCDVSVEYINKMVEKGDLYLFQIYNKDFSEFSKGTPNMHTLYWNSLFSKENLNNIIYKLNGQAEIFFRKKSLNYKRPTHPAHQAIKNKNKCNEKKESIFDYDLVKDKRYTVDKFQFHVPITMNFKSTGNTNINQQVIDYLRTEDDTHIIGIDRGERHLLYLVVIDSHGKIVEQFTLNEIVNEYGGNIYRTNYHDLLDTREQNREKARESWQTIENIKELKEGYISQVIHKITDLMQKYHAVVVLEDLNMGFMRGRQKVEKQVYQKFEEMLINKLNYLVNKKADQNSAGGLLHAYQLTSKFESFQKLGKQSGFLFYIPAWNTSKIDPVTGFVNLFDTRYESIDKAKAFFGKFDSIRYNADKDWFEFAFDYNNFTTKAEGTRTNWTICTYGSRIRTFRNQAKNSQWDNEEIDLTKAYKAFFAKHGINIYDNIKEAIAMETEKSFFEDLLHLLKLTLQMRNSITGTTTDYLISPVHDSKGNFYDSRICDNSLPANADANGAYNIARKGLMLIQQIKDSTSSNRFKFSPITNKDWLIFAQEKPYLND
Nature of the data set: cell_activity. Particulars: pea protoplasts, NGS; PAM TTTC per claims.

Data set [2] relates to T2, Pb2Cpf1 E173R (Prevotella bryantii B14).
T2 sequence: T1 sequence with E182R
As to the kind of experiment: cell_activity. Particulars: pea protoplasts, NGS; PAM TTTC per claims.

Where a chain is given by its changes, count along the chain named.

As to “PsLOX2 guide RNA (plasmid 133806, MtU6 promoter; plasmid sequence given) ; PsLOX2 genomic target”, the activity was 0.32 % editing in data set [1] and 0.88 % editing in data set [2].
